Biological target: Cdk2/cyclin A complex (Cdk2 phosphorylated at threonine 160 with truncated cyclin A) (human) (UniProt P24941)

IC50 of inhibition of Cdk2/cyclin A kinase activity (data not shown; 25% residual kinase activity even at peptide concentrations as high as 17 µM): 125 nM
Substance: peptide corresponding to the Cdk binding domain of p27
